This is an account of results in patent US7977317B2, “Compositions and methods for modulating blood-brain barrier transport” (Raptor Pharmaceutical Inc., priority 2001, dated 2011).

Data set [1] in a line: Brain uptake one hour after i.v. injection. The data set is classed as in vivo. To be noted: mice, one hour after i.v. injection of [125I]-protein (FIG. 11a). Here is the method: FIG. 11 examines the accumulation and transcytosis of p97. FIG. 11a, of [^125I]-p97, [^125I]-BSA and [^125I]-holo-transferrin one hour after i.v. injection. The radioactivity in brain was compared between the three compounds. (n=3); FIG. 11b, Accumulation of p97 and transferrin into the mouse brain parenchyma. In situ brain perfusion was performed with human [^125I]-p97 or [^125I]-holo-transferrin at a final concentration of 10 nM via a catheter inserted in the right common carotid artery. The volume of distribution (VD) of [^125I]-proteins were obtained in the whole brain homogenate (white bars), in brain capillaries (solid bars) and in brain parenchyma (hatched bars) after isolation of the right hemisphere and capillary depletion. Results were obtained for p97 (n=10) and for holo-transferrin (n=6); FIG. 11c, Transcytosis of p97 across BBCEC monolayers. Transcytosis experiments were performed 37° C. (open circles) and 4° C. (closed circles) with BBCEC monolayers. […] Apical-to-basal and basal-to-apical transport of [^125I]-p97 (25 nM) was measured for 2 hrs at 37° C. At the end of the experiment, [^125I]-p97 was assessed in the lower or upper chambers of each well by TCA precipitation (n=4).
A. Brain uptake and in situ brain perfusion. […] The serum and brain samples were collected and the levels of radioactivity were measured. […]

For a further data set, the system named is BBCE. Kind of data set: Transcellular co-localization of p97 with clathrin in BBCE. The following applies: clathrin versus caveolin. The data set is classed as cell-based, bovine. The text has this:
FIG. 21 depicts the transcellular co-localization of p97 and clathrin turning transcytosis.
Transcellular localization of p97 and clathrin was examined in BBCE as the p97 moved from the luminal to abluminal side of the BBB model (FIG. 21). The data are indicative of a co-migration of p97 and clathrin. As a control for the effect of the Alexa label, the behavior of p97 and p97-alexa were compared. (data not shown).

Another data set deals with Cubilin. Put plainly: RT-PCR after p97 treatment in U-87 cells: Cubilin. To be noted: 72 hours, RT-PCR (FIG. 35). The data set is classed as cell-based, human. On the procedure:
(§1) FIG. 35. Effect of p97 and RAP treatments in U-87 cells (RT-PCR). Cells (2×10^5) were plated onto six-multiwell microplates and grown at 37° C. under 5% CO2 with optimal culture medium supplemented with serum for 4 days. Treatment was performed in serum free medium for 72 hours. RNA isolation and RT-PCR were performed as described in the Examples. The amplified PCR products were electrophoresed on a 2% agarose gel and visualized under ultraviolet light. (n=2 for p97), (n=1 for RAP)
(§2) FIG. 38. Effect of p97 and RAP treatments in U-87 cells on expression of cubulin (A), P97 (B) and Megalin (C). The amplified PCR products were electrophoresed on a 2% agarose gel and visualized under ultraviolet light. (n=1). Quantification was by densitometry of p97 and RAP treatments on the RNA levels of LRP1B, LRP, LDL-R, cubilin, endogenous p97 and megalin. Results are expressed as ratios of RNA levels between control and treated U-87 cells.
(§3) RNA extraction. Cells in six-wells plate or in 75 cm^2 plastic tissue culture flasks were grown at 37° C. under 5% CO2 with optimal culture medium to 80-90% confluence. Total cellular RNA was preserved in Trizol (Gibco BRL, Burlington, ON). The solution are frozen at −80° C. until extraction. The solution was defroze and mixed with 5:1 chloroform for 3 minutes at room temperature. The suspension was centrifugated at 12000 g at 4° C. […]

The test system of a further data set is Megalin. Put plainly: RT-PCR after p97 treatment in U-87 cells: Megalin. The data set is classed as cell-based, human. The following applies: 72 hours, RT-PCR (FIG. 35). Here is the method:
as §1, §2, §3

A further data set deals with U-87 cells. Kind of data set: Morphology of U-87 cells after p97 treatment. It counts as cell-based, human. The following applies: FIG. 33.

B1: p97: recombinant human melanotransferrin (p97), provided by Synapse Technologies (protein, UniProt P08582 20-709, looked up)
Melanotransferrin: GMEVRWCATSDPEQHKCGNMSEAFREAGIQPSLLCVRGTSADHCVQLIAAQEADAITLDGGAIYEAGKEHGLKPVVGEVYDQEVGTSYYAVAVVRRSSHVTIDTLKGVKSCHTGINRTVGWNVPVGYLVESGRLSVMGCDVLKAVSDYFGGSCVPGAGETSYSESLCRLCRGDSSGEGVCDKSPLERYYDYSGAFRCLAEGAGDVAFVKHSTVLENTDGKTLPSWGQALLSQDFELLCRDGSRADVTEWRQCHLARVPAHAVVVRADTDGGLIFRLLNEGQRLFSHEGSSFQMFSSEAYGQKDLLFKDSTSELVPIATQTYEAWLGHEYLHAMKGLLCDPNRLPPYLRWCVLSTPEIQKCGDMAVAFRRQRLKPEIQCVSAKSPQHCMERIQAEQVDAVTLSGEDIYTAGKTYGLVPAAGEHYAPEDSSNSYYVVAVVRRDSSHAFTLDELRGKRSCHAGFGSPAGWDVPVGALIQRGFIRPKDCDVLTAVSEFFNASCVPVNNPKNYPSSLCALCVGDEQGRNKCVGNSQERYYGYRGAFRCLVENAGDVAFVRHTTVFDNTNGHNSEPWAAELRSEDYELLCPNGARAEVSQFAACNLAQIPPHAVMVRPDTNIFTVYGLLDKAQDLFGDDHNKNGFKMFDSSNYHGQDLLFKDATVRAVPVGEKTTYRGWLGLDYVAALEGMSSQQC
In the case of B1, the Brain/serum ratio in data set [1] was found to be 0.025. Also, the Co-localization during endocytosis/transcytosis entry in the data set on BBCE was “co-localize with clathrin”. Also, the “Expression of the Cubilin receptor” value in the data set with Cubilin is recorded as “induces the expression”. Further, the “Expression of the Megalin receptor” value in the data set with Megalin was “not”. Further, the “Effect on the morphology of U-87 cells” value in the data set with U-87 cells was “no discernable effect on the morphology”.
